Reference: patent US20190030139A1 (MAYO FOUNDATION FOR MEDICAL EDUCATION AND RESEARCH, published 2019)

B2: LKB1 (enzyme, UniProt Q15831 1-430, looked up)
chain: MEVVDPQQLGMFTEGELMSVGMDTFIHRIDSTEVIYQPRRKRAKLIGKYLMGDLLGEGSYGKVKEVLDSETLCRRAVKILKKKKLRRIPNGEANVKKEIQLLRRLRHKNVIQLVDVLYNEEKQKMYMVMEYCVCGMQEMLDSVPEKRFPVCQAHGYFCQLIDGLEYLHSQGIVHKDIKPGNLLLTTGGTLKISDLGVAEALHPFAADDTCRTSQGSPAFQPPEIANGLDTFSGFKVDIWSAGVTLYNITTGLYPFEGDNIYKLFENIGKGSYAIPGDCGPPLSDLLKGMLEYEPAKRFSIRQIRQHSWFRKKHPPAEAPVPIPPSPDTKDRWRSMTVVPYLEDLHGADEDEDLFDIEDDIIYTQDFTVPGQVPEEEASHNGQRRGLPKAVCMNGTEAAQLSTKSRAEGRAPNPARKACSASSKIRRLSAC
notes: Cellular protein co-precipitated with FLAG-tagged AMPKα

How the values were obtained:
[1] = molecular target: T1, Purified His6-USP10 (human, UniProt Q14694 1-798); assay: GST pull-down with recombinant proteins (FIG. 3A)
T1 construct: also called His-USP10; recombinant USP10; not shown: His6 tag
Description: Purified His6-USP10 was incubated with the indicated GST tagged AMPK subunits coupled to GSH-Sepharose. Proteins retained on Sepharose were then blotted with the indicated antibodies. FIGS. 3B-3D are immunoblots showing the interaction of USP10 with AMPKα in cells. HCT116 cell lysates were subjected to immunoprecipitation (IP) with control IgG, anti-USP10 (FIG. 3B), anti-AMPKα1 (FIG. 3C), anti-AMPKα2 (FIG. 3D) antibodies. The immunoprecipitates were then blotted with the indicated antibodies. […] 293T cells transfected with the indicated constructs were lysed, and lysates were incubated with anti-FLAG beads. Proteins retained on beads were blotted with the indicated antibodies. […] HCT116 cells infected with lentivirus encoding the indicated shRNAs were transfected with the indicated constructs. Cell lysates and Ni-NTA pulldowns were immunoblotted as indicated. -Glu, glucose starvation. FIG. 3G is a picture of an immunoblot showing that USP10 deubiquitinase activity is required for AMPK deubiquitination. The indicated constructs were transfected into USP10 knockdown cell lines, and cells were placed in medium without glucose for 4 hours. Cell lysates were incubated with anti-HA beads and immunoblotted with the indicated antibodies. -Glu, glucose starvation. FIG. 3H is a picture of an immunoblot showing deubiquitination of AMPKα2 in vitro by USP10. Ubiquitinated AMPKα2 was incubated with purified USP10 or USP10CA in vitro, and then blotted with indicated antibodies.
Immunoprecipitation, immunoblotting, and in vitro pull-down assay—Cell lysates were prepared and immunoprecipitation and immunoblotting were performed as described elsewhere (Yuan et al., supra). In brief, cells were lysed with NETN buffer (20 mM Tris-HCl, pH 8.0, 100 mM NaCl, 1 mM EDTA, 0.5% Nonidet P-40) containing 50 mM β-glycerophosphate, 10 mM NaF, and 1 mg/ml each of pepstatin A and aprotinin.

[2] = molecular target: T2, WT AMPKα2 (FLAG-tagged, expressed in HCT116 cells) (human, UniProt P54646 1-552); assay: FLAG-bead immunoprecipitation from HCT116 lysates, LKB1 immunoblot (FIG. 5G)
T2 construct: Precipitated from cell lysates with FLAG beads; ubiquitinated in part in cells; also called FLAG-AMPKα; not shown: FLAG tag

[3] = molecular target: T3, WT AMPKα1 (FLAG-tagged, expressed in HCT116 cells) (human, UniProt Q13131 1-559); assay: FLAG-bead immunoprecipitation from HCT116 lysates, LKB1 immunoblot (FIG. 6F)
T3 construct: Precipitated from cell lysates with FLAG beads; ubiquitinated in part in cells; also called FLAG-AMPKα; not shown: FLAG tag

[4] = molecular target: B2; assay: FLAG-bead immunoprecipitation from HCT116 lysates, LKB1 immunoblot (FIG. 5G)
[5] = molecular target: B2; assay: FLAG-bead immunoprecipitation from HCT116 lysates, LKB1 immunoblot (FIG. 6F)

T1 sequence (Q14694 whole entry): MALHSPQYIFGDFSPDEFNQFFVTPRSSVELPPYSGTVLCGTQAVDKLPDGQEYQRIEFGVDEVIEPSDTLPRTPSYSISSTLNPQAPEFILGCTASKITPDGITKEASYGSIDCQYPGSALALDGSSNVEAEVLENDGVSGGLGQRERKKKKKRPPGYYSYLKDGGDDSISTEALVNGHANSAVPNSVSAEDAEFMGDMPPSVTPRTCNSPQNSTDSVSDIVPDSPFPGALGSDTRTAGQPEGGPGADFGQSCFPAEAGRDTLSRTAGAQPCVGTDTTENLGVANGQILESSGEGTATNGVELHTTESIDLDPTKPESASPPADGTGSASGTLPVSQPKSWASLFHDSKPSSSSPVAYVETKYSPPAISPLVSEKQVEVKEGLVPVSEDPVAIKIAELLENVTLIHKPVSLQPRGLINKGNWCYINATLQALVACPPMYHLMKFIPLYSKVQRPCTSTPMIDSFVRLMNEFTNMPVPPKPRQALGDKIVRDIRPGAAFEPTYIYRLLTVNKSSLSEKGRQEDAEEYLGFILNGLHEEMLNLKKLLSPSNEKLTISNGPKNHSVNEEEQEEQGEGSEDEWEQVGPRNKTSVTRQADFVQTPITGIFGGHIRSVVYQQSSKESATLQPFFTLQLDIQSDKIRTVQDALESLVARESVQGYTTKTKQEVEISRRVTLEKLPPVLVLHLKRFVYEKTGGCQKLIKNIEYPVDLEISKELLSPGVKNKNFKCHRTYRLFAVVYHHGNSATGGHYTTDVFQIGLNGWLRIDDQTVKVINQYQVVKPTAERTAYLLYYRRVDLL

B1: GST tagged AMPK γ1 (other, UniProt P54619 1-331, looked up)
chain: METVISSDSSPAVENEHPQETPESNNSVYTSFMKSHRCYDLIPTSSKLVVFDTSLQVKKAFFALVTNGVRAAPLWDSKKQSFVGMLTITDFINILHRYYKSALVQIYELEEHKIETWREVYLQDSFKPLVCISPNASLFDAVSSLIRNKIHRLPVIDPESGNTLYILTHKRILKFLKLFITEFPKPEFMSKSLEELQIGTYANIAMVRTTTPVYVALGIFVQHRVSALPVVDEKGRVVDIYSKFDVINLAAEKTYNNLDVSVTKALQHRSHYFEGVLKCYLHETLETIINRLVEAEVHRLVVVDENDVVKGIVSLSDILQALVLTGGEKKP
notes: not shown: glutathione S-transferase tag of vector pGEX-4T-1
B1: no binding [1].

B2: binds [2]; binds [3].

B3: AMPKα2 4KR mutant (FLAG-tagged, expressed in HCT116 cells) (enzyme)
chain: MAEKQKHDGRVKIGHYVLGDTLGVGTFGKVKIGEHQLTGHKVAVKILNRQKIRSLDVVGRIKREIQNLKLFRHPHIIKLYQVISTPTDFFMVMEYVSGGELFDYICKHGRVEEMEARRLFQQILSAVDYCHRHMVVHRDLKPENVLLDAHMNAKIADFGLSNMMSDGEFLRTSCGSPNYAAPEVISGRLYAGPEVDIWSCGVILYALLCGTLPFDDEHVPTLFKKIRGGVFYIPEYLNRSVATLLMHMLQVDPLKRATIKDIREHEWFKQDLPSYLFPEDPSYDANVIDDEAVKEVCEKFECTESEVMNSLYSGDPQDQLAVAYHLIIDNRRIMNQASEFYLASSPPSGSFMDDSAMHIPPGLKPHPERMPPLIADSPRARCPLDALNTTRPKSLAVKKAKWHLGIRSQSKPYDIMAEVYRAMKQLDFEWKVVNAYHLRVRRKNPVTGNYVKMSLQLYLVDNRSYLLDFRSIDDEVVEQRSGSSTPQRSCSAAGLHRPRSSFDSTTAESHSLSGSLTGSLTGSTLSSVSPRLGSHTMDFFEMCASLITTLAR
notes: also called quadruple K to R mutant (4KR); AMPKα 4KR mutant; not shown: FLAG tag
B3: binds [4].

B4: GST tagged AMPK β1 (other, UniProt Q9Y478 1-270, looked up)
chain: MGNTSSERAALERHGGHKTPRRDSSGGTKDGDRPKILMDSPEDADLFHSEEIKAPEKEEFLAWQHDLEVNDKAPAQARPTVFRWTGGGKEVYLSGSFNNWSKLPLTRSHNNFVAILDLPEGEHQYKFFVDGQWTHDPSEPIVTSQLGTVNNIIQVKKTDFEVFDALMVDSQKCSDVSELSSSPPGPYHQEPYVCKPEERFRAPPILPPHLLQVILNKDTGISCDPALLPEPNHVMLNHLYALSIKDGVMVLSATHRYKKKYVTTLLYKPI
notes: as for B1
B4: no binding [1].

B5: GST tagged AMPK β2 (other, UniProt O43741 1-272, looked up)
chain: MGNTTSDRVSGERHGAKAARSEGAGGHAPGKEHKIMVGSTDDPSVFSLPDSKLPGDKEFVSWQQDLEDSVKPTQQARPTVIRWSEGGKEVFISGSFNNWSTKIPLIKSHNDFVAILDLPEGEHQYKFFVDGQWVHDPSEPVVTSQLGTINNLIHVKKSDFEVFDALKLDSMESSETSCRDLSSSPPGPYGQEMYAFRSEERFKSPPILPPHLLQVILNKDTNISCDPALLPEPNHVMLNHLYALSIKDSVMVLSATHRYKKKYVTTLLYKPI
notes: as for B1
B5: no binding [1].

B6: AMPKα1 4KR mutant (FLAG-tagged, expressed in HCT116 cells) (enzyme)
chain: MRRLSSWRKMATAEKQKHDGRVKIGHYILGDTLGVGTFGKVKVGKHELTGHKVAVKILNRQKIRSLDVVGRIRREIQNLKLFRHPHIIKLYQVISTPSDIFMVMEYVSGGELFDYICKNGRLDEKESRRLFQQILSGVDYCHRHMVVHRDLKPENVLLDAHMNAKIADFGLSNMMSDGEFLRTSCGSPNYAAPEVISGRLYAGPEVDIWSSGVILYALLCGTLPFDDDHVPTLFKKICDGIFYTPQYLNPSVISLLKHMLQVDPMKRATIKDIREHEWFKQDLPRYLFPEDPSYSSTMIDDEALKEVCEKFECSEEEVLSCLYNRNHQDPLAVAYHLIIDNRRIMNEAKDFYLATSPPDSFLDDHHLTRPHPERVPFLVAETPRARHTLDELNPQRSKHQGVRKAKWHLGIRSQSRPNDIMAEVCRAIKQLDYEWKVVNPYYLRVRRKNPVTSTYSKMSLQLYQVDSRTYLLDFRSIDDEITEARSGTATPQRSGSVSNYRSCQRSDSDAEAQGKSSEVSLTSSVTSLDSSPVDLTPRPGSHTIEFFEMCANLIKILAQ
notes: also called 4KR AMPKα1; AMPKα 4KR mutant; not shown: FLAG tag
B6: binds [5].
